# Data: the supplement of paper PMC10065799, “High-throughput profiling of sequence recognition by tyrosine kinases and SH2 domains using bacterial peptide display” (eLife, 2023)
# What was measured:
# c-Src SH2 = assay: SH2 binding enrichment of the phosphorylated peptide, bacterial display (enrichment ratio); higher = better substrate or ligand; peptides without Tyr show the background
# Grb2 SH2 = Grb2 SH2 (UniProt P62993); assay: as above
# SHP2-C SH2 = assay: as above
# c-Src = assay: phosphorylation enrichment, bacterial display (enrichment ratio); higher = better substrate or ligand; peptides without Tyr show the background
# Fyn = Fyn (UniProt P06241); assay: as above
# c-Abl (mouse) = assay: as above
# EPHB2 = EPHB2 (UniProt P29323); assay: as above
# EPHB1 = EPHB1 (UniProt P54762); assay: as above
# FGFR3 = FGFR3 (UniProt P22607); assay: as above
# Fer (mouse) = assay: as above
# MERTK = MERTK (UniProt Q12866); assay: as above
# AncSZ = assay: as above
# FGFR1 = FGFR1 (UniProt P11362); assay: as above
# Jak2 = Jak2 (UniProt O60674); assay: as above
# Fes = Fes (UniProt P07332); assay: as above
# Hck = Hck (UniProt P08631); assay: as above
# 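For SH2 binding enrichment of the phosphorylated peptide, bacterial display in this document: peptide library displayed on the E. coli surface as eCPX fusions, selected cells deep-sequenced, score is each peptide's frequency after selection divided by its frequency in the input.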
# 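For phosphorylation enrichment, bacterial display in this document: 11-residue human phosphosite peptides and single-mutation variants displayed on the E. coli surface, counted by deep sequencing, each peptide's frequency after selection divided by its frequency in the unselected input library; frequency after pTyr selection over input frequency; kinase dosed for 20-30% of maximal phosphorylation in three min.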
# FGFR3, sequence (P22607 whole entry, looked up): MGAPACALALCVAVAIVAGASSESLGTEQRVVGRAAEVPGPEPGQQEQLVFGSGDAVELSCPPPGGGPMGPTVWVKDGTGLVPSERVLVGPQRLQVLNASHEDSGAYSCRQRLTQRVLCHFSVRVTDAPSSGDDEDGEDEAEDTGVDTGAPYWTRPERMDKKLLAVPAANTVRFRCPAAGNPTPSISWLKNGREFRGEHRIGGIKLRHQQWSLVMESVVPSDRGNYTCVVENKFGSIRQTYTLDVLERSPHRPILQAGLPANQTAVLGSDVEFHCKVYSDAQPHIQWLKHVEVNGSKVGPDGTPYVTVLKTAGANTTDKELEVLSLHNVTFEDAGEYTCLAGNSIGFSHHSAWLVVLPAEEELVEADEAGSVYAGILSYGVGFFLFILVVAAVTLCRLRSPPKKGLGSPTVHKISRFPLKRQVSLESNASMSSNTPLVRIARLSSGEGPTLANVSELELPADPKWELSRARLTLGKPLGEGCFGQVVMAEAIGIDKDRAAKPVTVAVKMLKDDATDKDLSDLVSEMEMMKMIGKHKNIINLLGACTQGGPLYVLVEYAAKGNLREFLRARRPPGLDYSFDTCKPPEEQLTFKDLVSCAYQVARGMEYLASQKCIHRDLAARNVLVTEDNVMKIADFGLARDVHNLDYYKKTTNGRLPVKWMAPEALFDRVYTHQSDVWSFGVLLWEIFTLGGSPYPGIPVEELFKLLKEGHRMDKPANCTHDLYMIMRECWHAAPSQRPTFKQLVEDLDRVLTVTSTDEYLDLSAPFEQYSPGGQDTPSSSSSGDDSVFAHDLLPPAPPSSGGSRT
# Jak2, sequence (O60674 whole entry, looked up): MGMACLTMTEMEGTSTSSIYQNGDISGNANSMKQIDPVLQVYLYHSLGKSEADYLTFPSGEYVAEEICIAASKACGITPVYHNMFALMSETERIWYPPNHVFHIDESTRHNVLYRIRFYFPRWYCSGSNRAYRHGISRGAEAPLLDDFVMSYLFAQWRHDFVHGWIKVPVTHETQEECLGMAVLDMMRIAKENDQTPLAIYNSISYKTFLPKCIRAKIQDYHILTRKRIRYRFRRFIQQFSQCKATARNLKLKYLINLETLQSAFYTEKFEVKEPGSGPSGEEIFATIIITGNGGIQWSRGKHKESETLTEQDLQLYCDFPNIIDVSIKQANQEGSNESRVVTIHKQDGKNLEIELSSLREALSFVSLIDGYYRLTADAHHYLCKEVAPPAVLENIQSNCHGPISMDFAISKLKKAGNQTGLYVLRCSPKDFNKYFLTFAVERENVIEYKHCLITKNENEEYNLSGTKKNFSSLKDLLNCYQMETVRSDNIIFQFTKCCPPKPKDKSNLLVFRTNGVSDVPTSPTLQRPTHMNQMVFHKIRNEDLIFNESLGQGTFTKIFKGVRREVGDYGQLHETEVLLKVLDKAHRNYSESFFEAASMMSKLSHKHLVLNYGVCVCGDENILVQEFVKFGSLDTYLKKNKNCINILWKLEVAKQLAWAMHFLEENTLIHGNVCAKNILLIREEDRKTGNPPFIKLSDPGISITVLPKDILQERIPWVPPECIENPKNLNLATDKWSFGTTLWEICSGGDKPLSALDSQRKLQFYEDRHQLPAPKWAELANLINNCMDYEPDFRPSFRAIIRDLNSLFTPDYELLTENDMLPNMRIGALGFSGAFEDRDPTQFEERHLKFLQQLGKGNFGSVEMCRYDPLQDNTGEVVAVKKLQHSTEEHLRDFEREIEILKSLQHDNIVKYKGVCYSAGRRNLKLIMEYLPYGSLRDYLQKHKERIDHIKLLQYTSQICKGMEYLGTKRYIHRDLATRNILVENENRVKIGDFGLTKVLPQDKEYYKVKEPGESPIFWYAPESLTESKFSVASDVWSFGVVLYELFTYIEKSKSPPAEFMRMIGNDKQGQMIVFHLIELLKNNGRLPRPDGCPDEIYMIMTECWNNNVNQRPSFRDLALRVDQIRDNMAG
# FGFR1, sequence (P11362 whole entry, looked up): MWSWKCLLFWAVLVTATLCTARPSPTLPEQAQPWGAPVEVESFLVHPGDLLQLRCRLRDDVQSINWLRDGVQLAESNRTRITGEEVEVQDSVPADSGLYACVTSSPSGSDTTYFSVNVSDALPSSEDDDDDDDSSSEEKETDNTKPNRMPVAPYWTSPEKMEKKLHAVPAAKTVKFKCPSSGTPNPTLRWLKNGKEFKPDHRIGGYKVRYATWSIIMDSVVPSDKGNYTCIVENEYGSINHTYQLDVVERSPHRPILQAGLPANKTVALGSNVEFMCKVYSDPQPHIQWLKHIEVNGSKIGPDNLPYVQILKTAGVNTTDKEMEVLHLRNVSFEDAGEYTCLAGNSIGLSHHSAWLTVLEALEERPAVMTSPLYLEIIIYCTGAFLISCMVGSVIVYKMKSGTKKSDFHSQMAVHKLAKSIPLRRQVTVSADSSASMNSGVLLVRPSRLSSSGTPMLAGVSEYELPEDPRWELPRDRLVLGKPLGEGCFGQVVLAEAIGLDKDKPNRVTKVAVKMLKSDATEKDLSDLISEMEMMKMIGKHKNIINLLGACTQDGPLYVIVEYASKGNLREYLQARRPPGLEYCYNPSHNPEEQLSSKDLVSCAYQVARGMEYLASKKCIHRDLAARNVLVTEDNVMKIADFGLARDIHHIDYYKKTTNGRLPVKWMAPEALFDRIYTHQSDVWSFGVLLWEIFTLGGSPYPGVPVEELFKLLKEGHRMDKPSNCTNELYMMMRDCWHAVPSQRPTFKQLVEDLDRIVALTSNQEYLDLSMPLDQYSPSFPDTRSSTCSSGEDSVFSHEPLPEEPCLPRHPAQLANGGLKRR
# EPHB1, sequence (P54762 whole entry, looked up): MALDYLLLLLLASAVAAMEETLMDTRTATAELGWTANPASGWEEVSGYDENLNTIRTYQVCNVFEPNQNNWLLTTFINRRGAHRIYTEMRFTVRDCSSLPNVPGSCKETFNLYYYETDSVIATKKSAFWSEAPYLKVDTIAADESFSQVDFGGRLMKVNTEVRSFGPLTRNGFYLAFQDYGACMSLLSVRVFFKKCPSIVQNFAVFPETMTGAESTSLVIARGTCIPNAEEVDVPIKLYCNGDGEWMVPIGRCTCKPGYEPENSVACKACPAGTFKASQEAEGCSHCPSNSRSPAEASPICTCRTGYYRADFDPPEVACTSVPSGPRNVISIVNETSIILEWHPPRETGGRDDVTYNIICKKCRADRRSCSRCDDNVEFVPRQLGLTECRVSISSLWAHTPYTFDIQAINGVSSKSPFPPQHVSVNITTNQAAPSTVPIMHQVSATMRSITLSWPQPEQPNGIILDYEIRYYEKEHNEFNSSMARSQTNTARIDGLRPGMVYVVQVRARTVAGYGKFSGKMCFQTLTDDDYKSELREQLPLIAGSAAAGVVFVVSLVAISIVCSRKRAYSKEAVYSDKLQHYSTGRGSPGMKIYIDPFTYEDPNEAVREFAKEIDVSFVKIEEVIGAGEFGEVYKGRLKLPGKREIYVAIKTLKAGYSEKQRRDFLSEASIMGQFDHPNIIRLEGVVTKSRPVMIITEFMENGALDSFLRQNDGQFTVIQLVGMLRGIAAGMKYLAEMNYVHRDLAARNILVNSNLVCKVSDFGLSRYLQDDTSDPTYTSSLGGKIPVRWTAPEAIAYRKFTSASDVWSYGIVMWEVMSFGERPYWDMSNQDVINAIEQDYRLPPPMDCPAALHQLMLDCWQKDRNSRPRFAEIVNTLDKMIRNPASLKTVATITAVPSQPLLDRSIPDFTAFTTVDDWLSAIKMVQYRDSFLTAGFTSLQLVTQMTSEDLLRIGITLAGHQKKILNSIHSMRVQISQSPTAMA
# Hck, sequence (P08631 whole entry, looked up, the tested form may be a part): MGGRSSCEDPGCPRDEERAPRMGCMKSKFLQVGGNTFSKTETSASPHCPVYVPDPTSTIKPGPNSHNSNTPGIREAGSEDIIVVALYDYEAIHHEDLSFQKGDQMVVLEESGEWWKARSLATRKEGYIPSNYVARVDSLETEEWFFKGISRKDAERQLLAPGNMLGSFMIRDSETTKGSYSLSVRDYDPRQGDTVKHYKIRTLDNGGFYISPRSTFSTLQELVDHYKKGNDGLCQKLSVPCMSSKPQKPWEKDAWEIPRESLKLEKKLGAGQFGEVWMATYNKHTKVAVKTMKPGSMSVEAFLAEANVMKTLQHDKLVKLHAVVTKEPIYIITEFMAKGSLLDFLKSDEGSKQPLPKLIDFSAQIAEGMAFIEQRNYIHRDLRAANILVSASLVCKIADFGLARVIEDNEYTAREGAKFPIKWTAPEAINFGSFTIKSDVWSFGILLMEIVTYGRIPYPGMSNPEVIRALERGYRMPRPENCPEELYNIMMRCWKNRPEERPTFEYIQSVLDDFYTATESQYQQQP
# Fyn, sequence (P06241 whole entry, looked up): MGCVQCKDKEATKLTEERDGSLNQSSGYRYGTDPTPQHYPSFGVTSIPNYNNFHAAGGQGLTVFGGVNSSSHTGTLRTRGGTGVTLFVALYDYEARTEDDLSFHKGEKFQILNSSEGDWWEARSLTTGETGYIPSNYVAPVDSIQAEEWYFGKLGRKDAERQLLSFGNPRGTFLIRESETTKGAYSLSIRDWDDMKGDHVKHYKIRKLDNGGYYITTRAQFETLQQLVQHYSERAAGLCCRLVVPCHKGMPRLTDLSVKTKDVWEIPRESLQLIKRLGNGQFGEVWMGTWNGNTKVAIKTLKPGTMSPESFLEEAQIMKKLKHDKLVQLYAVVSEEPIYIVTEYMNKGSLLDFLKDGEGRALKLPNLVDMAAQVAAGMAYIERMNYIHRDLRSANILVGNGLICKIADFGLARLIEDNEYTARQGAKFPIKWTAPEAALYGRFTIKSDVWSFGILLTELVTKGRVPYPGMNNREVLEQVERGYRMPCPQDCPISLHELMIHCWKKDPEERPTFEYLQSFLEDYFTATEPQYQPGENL
SH2 binding enrichment (c-Src SH2),SH2 binding enrichment (Grb2 SH2),SH2 binding enrichment (SHP2-C SH2),Sequence,phosphorylation enrichment (c-Src),phosphorylation enrichment (Fyn),phosphorylation enrichment (c-Abl (mouse)),phosphorylation enrichment (EPHB2),phosphorylation enrichment (EPHB1),phosphorylation enrichment (FGFR3),phosphorylation enrichment (Fer (mouse)),phosphorylation enrichment (MERTK),phosphorylation enrichment (AncSZ),phosphorylation enrichment (FGFR1),phosphorylation enrichment (Jak2),phosphorylation enrichment (Fes),phosphorylation enrichment (Hck)
0.844,0.854,0.867,SVVVPYEPPEI [TP53_Y220_V225I],0.447,0.408,0.8,0.62,0.552,0.665,0.4,0.37,1.15,0.44,0.967,1.25,0.616
0.825,0.799,0.764,GSCQEYTGAPY [NAXD_Y85_G81S],0.505,0.441,0.668,0.537,0.573,0.7,0.494,0.432,1.14,0.558,0.805,0.894,0.545
0.622,0.873,0.566,MYDKEYYSVHN [MET_Y1234],1.65,0.64,1.05,1.13,0.965,4.25,0.727,0.813,2.1,7.14,2.53,1.1,0.903
1.28,0.516,0.456,TVLEPYTDPYY [ZC3H18_Y367_A368T],0.845,0.656,0.568,0.541,0.611,0.797,0.433,0.524,1.2,1,0.805,0.857,0.649
0.553,0.86,0.8,ADKAAYLQSLN [MYH2_Y389],0.45,0.536,0.546,0.561,0.458,0.572,0.539,0.476,0.779,0.506,0.777,0.789,0.516
0.521,0.78,0.739,GESKDYALHAG [SVIL_Y185_V189A],0.413,0.421,0.488,0.527,0.479,0.455,0.366,0.36,0.548,0.365,0.493,0.566,0.38
12.2,0.974,1.04,LNEVGYDDIGG [VCP_Y203],0.812,1.15,1.09,1.04,1.4,1.72,0.861,0.827,1.42,1.07,1.9,2.47,1.36
0.429,1.12,0.717,PLDGEYFTHQI [TP53_Y327_L330H],1.61,1.99,1.5,1.15,0.932,1.55,1.08,0.656,4.62,2.17,0.99,1.43,1.65
0.642,0.746,0.802,QKLPLYILENN [VPS13B_Y2774_S2773L],0.964,0.556,1,0.607,0.942,0.761,0.551,0.758,0.967,0.81,1.06,1.28,0.709
1.89,1.15,1.05,LRSELYSLIAR [PHIP_Y16_F17S],2.26,1.63,0.566,1.36,5.23,0.811,4.78,11,0.919,0.693,0.54,1.11,7.53

# The next lines start with the sequence.
Sequence,SH2 binding enrichment (c-Src SH2),SH2 binding enrichment (Grb2 SH2),SH2 binding enrichment (SHP2-C SH2),phosphorylation enrichment (c-Src),phosphorylation enrichment (Fyn),phosphorylation enrichment (c-Abl (mouse)),phosphorylation enrichment (EPHB2),phosphorylation enrichment (EPHB1),phosphorylation enrichment (FGFR3),phosphorylation enrichment (Fer (mouse)),phosphorylation enrichment (MERTK),phosphorylation enrichment (AncSZ),phosphorylation enrichment (FGFR1),phosphorylation enrichment (Jak2),phosphorylation enrichment (Fes),phosphorylation enrichment (Hck)
RNEAFYDTFST [EFCAB3_Y372_S370A],0.801,1.05,0.842,10,11.3,4.17,3.35,1.98,0.811,7.96,14.4,1.32,0.652,1.46,1.14,10.2
PNAFIYVVQLP [L1CAM_Y420_A415P_YF],0.656,0.931,0.768,0.87,0.896,0.747,1.53,1.2,1.31,0.737,1.69,1.39,0.797,1.26,1.56,1.06
GVLKEYVVKVL [CPS1_Y529_G530V],0.479,0.949,0.748,0.355,0.389,0.67,0.491,0.477,0.546,0.384,0.32,0.989,0.383,0.814,1.06,0.386
LFEDHYLLGTS [ASS1_Y87_R86H_YF],0.534,1.22,0.634,1.01,0.783,0.662,0.586,0.618,0.707,0.569,0.384,1.27,0.494,1.15,1.15,0.566
NFYEYYVDDPL [GCHFR_Y48_P53L],0.856,0.984,0.726,4.67,4.96,1.04,7.76,6.99,5.52,6.36,7.76,2.81,7.28,1.64,1.74,2.29
SVSVNYGDLVQ [GRAP_Y101_Q104L],0.479,0.824,0.695,0.419,0.506,0.61,0.557,0.516,0.633,0.54,0.42,0.745,0.565,0.728,0.855,0.476
LGQRIYQYIRS [DYRK1B_Y271_Q275R],3.25,1.14,1.51,3.09,1.65,2.38,3.2,11.1,0.959,4.1,7.5,1.42,1.54,1.98,1.56,5.58
IEDPFYGNDSD [ACP1_Y133_YF],0.529,0.942,0.855,0.75,0.556,1.1,0.65,0.782,0.966,0.755,0.487,1.51,0.643,2.17,1.55,0.628
YQASYYRRGDR [LTK_Y677_R673Q],0.418,0.684,0.442,0.527,0.492,0.641,0.399,0.453,0.526,0.403,0.523,0.685,0.411,0.635,0.713,0.57
EVASVYQSYQP [MAVS_Y92],0.609,0.753,0.8,7.09,9.7,1.14,0.622,0.54,0.568,2.7,0.569,0.864,0.518,0.661,0.802,7.42
YSTSPYLLEAA [BRIP1_Y921],0.629,0.657,1.15,2.21,4.67,0.959,0.518,0.544,0.604,0.53,1.38,0.887,0.551,0.694,0.931,1.08
HNLPIYEGYAL [ACTA1_Y168_V165L],2.85,0.835,0.714,6.97,11.6,2.79,22.7,17,0.64,19.3,6.51,1.24,0.547,0.566,1.16,9.09
KLYRVYCDMNT [FGB_Y269_P265L],1.22,0.868,0.715,0.549,0.608,0.696,0.702,0.769,0.693,0.52,0.466,0.978,0.452,0.838,1.07,0.623
SHLLRYLSWTV [CLCNKB_Y93],0.553,0.9,0.724,0.368,0.468,0.781,0.528,0.553,0.7,0.478,0.37,1.24,0.684,1.06,1.23,0.544
DPYHVYIKNHV [KCNE3_Y95_R99H],0.939,0.804,0.779,2.34,0.981,0.685,0.459,0.467,0.533,0.45,0.399,0.845,0.447,0.798,0.826,0.705
QQLQGYIPSNF [FRK_Y99_YF],0.47,0.674,0.519,0.546,0.938,0.899,0.881,0.763,1.09,0.679,0.878,1.11,0.884,0.981,1.29,0.647
ANFAKYGNPNE [BCHE_Y505],0.382,0.784,0.6,0.461,0.307,0.357,0.331,0.384,0.426,0.406,0.361,0.561,0.462,0.372,0.549,0.362
FTGVEYSSCDT [EPHA3_Y937],1.92,0.832,1.14,0.555,0.524,0.755,0.637,0.629,0.721,0.491,0.419,1.12,0.478,0.905,1.12,0.545
PADCRYYTFPQ [GAMT_Y222_A224T],2.15,1.01,1.36,5.45,2.82,1.7,2.18,3.34,5,4.15,11,4.04,6,4.4,2.01,2.64
